In paper PMC5148593, “Using the Amino Acid Network to Modulate the Hydrolytic Activity of β-Glycosidases” (PLoS ONE, 2016):

Substrate: O=[N+]([O-])c1ccc(O[C@@H]2O[C@H](CO)[C@@H](O)[C@H](O)[C@H]2O)cc1
Assay: purified protein
Assay type: biochemical, Spodoptera frugiperda
Conditions: 100 mM sodium citrate-sodium phosphate pH 6.0, 30°C

B1: Sfβgly (Spodoptera frugiperda) (protein)
chain: QQRRFPDDFLFGTATASYQIEGAWDEDGKGENIWDYMVHNTPEVIRDLSNGDIAADSYHNYKRDVEMMRELGLDAYRFSLSWARILPTGMANEVNPAGIAFYNNYIDEMLKYNITPLITLYHWDLPQKLQELGGFANPLISDWFEDYARVVFENFGDRVKMFITFNEPREICFEGYGSATKAPILNATAMGAYLCAKNLVTAHAKAYYLYDREFRPVQGGQCGITISVNWFGPATPTPEDEMAAELRRQGEWGIYAHPIFSAEGGFPKELSDKIAEKSAQQGYPWSRLPEFTEEEKAFVRGTSDLIGVNHYTAFLVSATERKGPYPVPSLLDDVDTGSWADDSWLKSASAWLTLAPNSIHTALTHLNNLYNKPVFYITENGWSTDESRENSLIDDDRIQYYRASMESLLNCLDDGINLKGYMAWSLMDNFEWMEGYIERFGLYEVDFSDPARTRTPRKAAFVYKHIIKHRVVDYEYEPETMVMTIDEGH
notes: kinetics: gene in pAE plasmid, E. coli NovaBlue (DE3), Ni-NTA purified (His tag kept); mature protein 21-509 (borders printed for the P. pastoris pPIC9 crystal construct, 5CG0, glycosylated at N206); monomer-dimer equilibrium
  Km: 2300 µM
  kcat: 0.61 s⁻¹
